Publication PMC1616947 (Nucleic Acids Research, 2006)

Biological target: the molecule itself
Assay: SEC + AUC

B1: MutLΔC20 deletion mutant (domain or fragment, Escherichia coli, UniProt P23367 1-595, looked up)
chain: MPIQVLPPQLANQIAAGEVVERPASVVKELVENSLDAGATRIDIDIERGGAKLIRIRDNGCGIKKDELALALARHATSKIASLDDLEAIISLGFRGEALASISSVSRLTLTSRTAEQQEAWQAYAEGRDMNVTVKPAAHPVGTTLEVLDLFYNTPARRKFLRTEKTEFNHIDEIIRRIALARFDVTINLSHNGKIVRQYRAVPEGGQKERRLGAICGTAFLEQALAIEWQHGDLTLRGWVADPNHTTPALAEIQYCYVNGRMMRDRLINHAIRQACEDKLGADQQPAFVLYLEIDPHQVDVNVHPAKHEVRFHQSRLVHDFIYQGVLSVLQQQLETPLPLDDEPQPAPRSIPENRVAAGRNHFAEPAAREPVAPRYTPAPASGSRPAAPWPNAQPGYQKQQGEVYRQLLQTPAPMQKLKAPEPQEPALAANSQSFGRVLTIVHSDCALLERDGNISLLSLPVAERWLRQAQLTPGEAPVCAQPLLIPLRLKVSAEEKSALEKAQSALAELGIDFQSDAQHVTIRAVPLPLRQQNLQILIPELIGYLAKQSVFEPGNIAQWIARNLMSEHAQWSMAQAITLLADVERLCPQLVKTP
stoichiometry N: 2
